Key:
Test in all cases: Biolayer interferometry (BLItz)
[1] = molecular target: Xenopus laevis StrepII-FANCD2; settings: StrepII-FANCD2-loaded biosensors in 20 ng/mL solution; FANCI 62.5-1000 nM
[2] = molecular target: T1, Xenopus laevis StrepII-FANCD2 (Xenopus laevis); settings: StrepII-FANCD2-loaded biosensors in 20 ng/mL solution; FANCI 62.5-1000 nM
T1 chain: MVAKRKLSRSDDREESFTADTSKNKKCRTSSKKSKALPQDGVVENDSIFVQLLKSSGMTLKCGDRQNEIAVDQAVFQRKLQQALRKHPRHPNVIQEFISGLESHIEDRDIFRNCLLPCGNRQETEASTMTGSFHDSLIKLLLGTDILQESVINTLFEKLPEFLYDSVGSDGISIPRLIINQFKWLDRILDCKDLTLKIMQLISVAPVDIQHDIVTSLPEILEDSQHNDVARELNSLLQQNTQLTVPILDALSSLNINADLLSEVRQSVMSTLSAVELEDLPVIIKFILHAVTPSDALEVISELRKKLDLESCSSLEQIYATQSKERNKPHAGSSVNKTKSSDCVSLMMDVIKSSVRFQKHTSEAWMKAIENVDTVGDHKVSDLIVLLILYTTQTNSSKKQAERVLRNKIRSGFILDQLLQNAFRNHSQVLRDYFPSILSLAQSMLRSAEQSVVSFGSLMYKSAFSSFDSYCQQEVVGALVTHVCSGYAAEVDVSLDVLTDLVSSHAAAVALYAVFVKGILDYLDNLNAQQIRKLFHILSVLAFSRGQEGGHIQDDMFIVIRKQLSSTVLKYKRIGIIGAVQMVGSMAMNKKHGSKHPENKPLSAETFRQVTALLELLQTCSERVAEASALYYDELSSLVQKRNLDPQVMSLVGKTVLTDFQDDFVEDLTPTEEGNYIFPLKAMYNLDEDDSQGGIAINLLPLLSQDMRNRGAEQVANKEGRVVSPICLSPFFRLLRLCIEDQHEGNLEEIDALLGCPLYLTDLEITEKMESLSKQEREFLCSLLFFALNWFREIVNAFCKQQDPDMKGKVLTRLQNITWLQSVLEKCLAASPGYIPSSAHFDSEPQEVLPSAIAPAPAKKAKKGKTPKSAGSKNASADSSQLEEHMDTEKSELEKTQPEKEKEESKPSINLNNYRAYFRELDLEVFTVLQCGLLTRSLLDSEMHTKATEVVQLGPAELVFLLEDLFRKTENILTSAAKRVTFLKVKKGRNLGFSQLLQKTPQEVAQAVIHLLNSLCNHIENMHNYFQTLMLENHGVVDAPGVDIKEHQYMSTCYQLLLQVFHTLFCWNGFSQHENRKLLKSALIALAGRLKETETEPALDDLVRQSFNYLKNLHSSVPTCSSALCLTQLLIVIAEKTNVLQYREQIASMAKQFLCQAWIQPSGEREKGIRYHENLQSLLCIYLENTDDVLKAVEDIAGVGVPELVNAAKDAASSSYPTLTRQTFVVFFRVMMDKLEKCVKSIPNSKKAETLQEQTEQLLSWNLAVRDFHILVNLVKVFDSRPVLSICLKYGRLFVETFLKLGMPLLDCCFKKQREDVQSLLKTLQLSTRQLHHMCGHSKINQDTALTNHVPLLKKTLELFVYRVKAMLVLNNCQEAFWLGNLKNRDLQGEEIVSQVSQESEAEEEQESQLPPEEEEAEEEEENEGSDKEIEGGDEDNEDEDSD

[3] = molecular target: T2, Xenopus laevis StrepII-FANCD2; settings: chain shown with the change; StrepII-FANCD2-loaded biosensors in 20 ng/mL solution; FANCI 62.5-1000 nM
T2 chain: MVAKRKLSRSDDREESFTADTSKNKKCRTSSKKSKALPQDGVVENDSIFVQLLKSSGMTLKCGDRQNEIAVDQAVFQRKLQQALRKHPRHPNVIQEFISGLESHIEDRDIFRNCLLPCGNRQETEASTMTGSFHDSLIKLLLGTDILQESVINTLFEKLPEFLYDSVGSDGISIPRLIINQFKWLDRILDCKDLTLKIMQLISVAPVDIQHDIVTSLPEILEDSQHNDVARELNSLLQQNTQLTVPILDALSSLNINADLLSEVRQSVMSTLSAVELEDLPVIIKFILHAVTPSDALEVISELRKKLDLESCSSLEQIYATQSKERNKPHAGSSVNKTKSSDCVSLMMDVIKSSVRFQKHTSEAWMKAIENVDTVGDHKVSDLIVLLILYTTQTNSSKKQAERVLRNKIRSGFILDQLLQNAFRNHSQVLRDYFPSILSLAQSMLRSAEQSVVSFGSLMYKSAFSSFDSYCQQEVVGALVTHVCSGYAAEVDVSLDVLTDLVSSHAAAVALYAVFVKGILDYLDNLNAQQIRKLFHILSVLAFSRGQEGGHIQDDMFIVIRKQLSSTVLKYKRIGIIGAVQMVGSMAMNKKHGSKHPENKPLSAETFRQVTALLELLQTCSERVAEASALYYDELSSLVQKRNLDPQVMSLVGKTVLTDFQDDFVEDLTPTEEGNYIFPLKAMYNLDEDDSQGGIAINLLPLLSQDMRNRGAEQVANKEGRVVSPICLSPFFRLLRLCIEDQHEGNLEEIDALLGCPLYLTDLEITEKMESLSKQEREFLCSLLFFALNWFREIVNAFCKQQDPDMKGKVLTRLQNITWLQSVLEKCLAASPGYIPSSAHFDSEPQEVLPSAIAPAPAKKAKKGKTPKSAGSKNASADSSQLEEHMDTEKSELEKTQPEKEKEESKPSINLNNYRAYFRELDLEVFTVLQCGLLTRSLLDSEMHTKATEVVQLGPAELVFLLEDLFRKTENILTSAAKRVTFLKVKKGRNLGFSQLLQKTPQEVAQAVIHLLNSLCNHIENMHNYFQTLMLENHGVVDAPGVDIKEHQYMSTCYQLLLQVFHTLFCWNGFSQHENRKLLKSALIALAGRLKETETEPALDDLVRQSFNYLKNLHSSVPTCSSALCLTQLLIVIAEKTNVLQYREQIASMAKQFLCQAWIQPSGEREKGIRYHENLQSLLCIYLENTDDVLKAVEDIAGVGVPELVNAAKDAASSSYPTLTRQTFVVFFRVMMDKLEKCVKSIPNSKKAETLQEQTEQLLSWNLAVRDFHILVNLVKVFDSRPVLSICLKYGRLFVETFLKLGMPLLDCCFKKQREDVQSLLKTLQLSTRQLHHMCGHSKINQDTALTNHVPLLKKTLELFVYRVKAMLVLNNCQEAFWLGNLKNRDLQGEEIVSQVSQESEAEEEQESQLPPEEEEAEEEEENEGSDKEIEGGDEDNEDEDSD

Molecule	kon [1]	kon [2]	Kd [3]	koff [3]
Xenopus laevis Flag-FANCI wild type S557D; S560D; S566D; S597D; S618D; S630D	39000 M⁻¹ s⁻¹			
Xenopus laevis Flag-FANCI wild type S557A; S560A; S566A; S597A; S618A; S630A (protein) MDQKILSLAAEEQNDGLQSYLQNLKETELSEIITKHAVKGKDCGALLRGVFKGSPCSHDVAVRRRLAVYRHCIQLVESGDLQREVASEIMGLLMLEVHHFPGASLIELANLFADAVKAGTLSNGKSLDLFPTVLTALSSKESLAYGKGELTGEEFKKQLINSLCSSRWDPQSVIFLTSMFRDVSLSAEELQFVVEKVLRMLSKLDLQEMPPLVYQLLLLSAKGSKKNIVEGIITIFNDLDQKQLVQQENSESLDLEDATIPQDQLHHVEGTIILHIVFAIKLDQELGRELLKYLKAGQQGDSSKILCPFSAALLLSVSRIHRFQEQVFDFLKSTILRDYKDLQFHQSSKFLQDLVPQPVCVSSILLETVKNSVYGWDHVTQGLVELGFILMDSFGPKAAFGNKVVELISVHSRTPSQQACQLGSRILLETFKVHEPIRSEILEQVLNRVITKAATPVTHFIDLLSDIVVSAPLILQNSSSKVTEAFDHLSFLPLTTVQGLLKAVQPLLKISMSMRDSLILVLRKAMFSSQIDARKSAVAGFLLLLRNFKVLGSLSSAQCAQAIGAAQIQVDVHMRYNAAANEAFCLEILGSLRRCLAQQADVRLMLYEGFYDVLRRNAQLASSVMQTLLAQLKRYYEPEPDLLPPLKLEGCITAQGDHIFLQEPLAHLLCCIHHCLQWYKSSLQQHRNPDEDDDDDDQTGCQQDLNDIMESITRRMIKCDLEDFELDKSADFSLASGVGVKNNIYAVLVMGICEVLIEYNFIIANFSKSKFEDILGLFKCCSKLSDILKEKAAKGRQPGNNKTARSLISMTFVSTLLTALFRDSTRSHEESLSILRANVDFMRYSVCVALQKIQQLEETGVTDGPDGQNSEKMFRSLCEITRVLMWRYTSIPAAAENPGKKDKGKTISLLCLEGLLRVFNTVQQRYPSKIPQFLTALDALGDEDEEGSREINVTEKAAFQIKQFQRSLINQLSGGEDDFNSKEALLLVSILSTLSRLLAPSSQQFVQMLSWTVKICKETNIEDVQFCKGIMNLLFSLHVQFKSPVSVLRELCQDIHGHLGDIDQDIEVEKQSHFATVSLKTAAPTVTLLVLGQAAKVLEEVDWLIIKLKGLLGSEKLSTEDLTQTSNARVPIEKAIILQLGTLLTACHELVQTALPAGSCTDTLLKELAKMYTILTSVVKYYLQICSSHGGQISARLEKLVKLSGSHLTPQCYAFITYVQNIHSESLSLAAEKKKKKKEEALTVTSAKILRDTKPIPNLIFAIEQYEKFLIHLSKKSKVNLMQYMKLSTSRDFRINAATLDAALQEKGSEDEENEPDNEQAVTEEESQEPKKKRRRK		11000 M⁻¹ s⁻¹	10.1 nM	9e-05 s⁻¹

Source: publication PMC7010609 (2020)
